Data: article PMC4405178 (Biochemistry, 2015)

Assays:
Assay in all cases: flow cytometry on cells
[1] = target: T1, full-length Ste2p L211R (Saccharomyces cerevisiae, UniProt D6VTK4 1-431, L211R)
T1 sequence (looked up): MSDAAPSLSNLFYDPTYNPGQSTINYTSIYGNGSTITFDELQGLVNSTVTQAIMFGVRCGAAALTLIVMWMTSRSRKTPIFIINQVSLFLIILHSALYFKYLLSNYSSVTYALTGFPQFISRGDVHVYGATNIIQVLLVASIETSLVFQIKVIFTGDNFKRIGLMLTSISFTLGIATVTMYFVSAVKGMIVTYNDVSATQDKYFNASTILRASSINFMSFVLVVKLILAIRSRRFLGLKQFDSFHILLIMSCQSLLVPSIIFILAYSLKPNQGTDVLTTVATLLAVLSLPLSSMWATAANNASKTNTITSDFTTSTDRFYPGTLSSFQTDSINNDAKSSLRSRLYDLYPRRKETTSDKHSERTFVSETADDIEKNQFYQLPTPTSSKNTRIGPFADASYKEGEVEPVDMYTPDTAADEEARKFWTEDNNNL

[2] = target: T2, full-length wild-type Ste2p (Saccharomyces cerevisiae, UniProt D6VTK4 1-431)
T2 sequence (looked up): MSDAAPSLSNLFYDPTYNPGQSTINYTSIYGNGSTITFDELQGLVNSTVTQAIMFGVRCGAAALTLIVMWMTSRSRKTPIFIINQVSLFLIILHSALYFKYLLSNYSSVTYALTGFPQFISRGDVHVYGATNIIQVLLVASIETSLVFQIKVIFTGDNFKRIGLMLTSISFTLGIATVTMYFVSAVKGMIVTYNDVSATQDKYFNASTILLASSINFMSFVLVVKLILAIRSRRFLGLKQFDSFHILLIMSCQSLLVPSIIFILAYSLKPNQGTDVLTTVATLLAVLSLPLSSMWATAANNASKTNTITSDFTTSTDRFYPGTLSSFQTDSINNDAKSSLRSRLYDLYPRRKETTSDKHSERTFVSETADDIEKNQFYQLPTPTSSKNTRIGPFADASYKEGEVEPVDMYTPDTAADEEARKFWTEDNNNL

[3] = target: T3, full-length Ste2p V49D (Saccharomyces cerevisiae, UniProt D6VTK4 1-431, V49D)
T3 sequence (looked up): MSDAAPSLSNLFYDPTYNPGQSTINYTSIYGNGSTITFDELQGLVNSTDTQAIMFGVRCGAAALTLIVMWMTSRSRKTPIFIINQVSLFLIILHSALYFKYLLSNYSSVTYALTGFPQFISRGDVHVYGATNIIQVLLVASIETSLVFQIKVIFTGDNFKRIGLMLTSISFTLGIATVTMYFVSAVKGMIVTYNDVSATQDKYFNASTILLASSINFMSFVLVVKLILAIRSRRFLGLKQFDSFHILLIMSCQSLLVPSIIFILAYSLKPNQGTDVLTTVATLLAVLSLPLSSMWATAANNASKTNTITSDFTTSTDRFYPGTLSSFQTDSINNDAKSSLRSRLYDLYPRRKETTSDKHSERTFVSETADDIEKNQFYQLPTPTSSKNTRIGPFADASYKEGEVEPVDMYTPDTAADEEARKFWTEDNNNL

[4] = target: T4, C-terminally truncated Ste2p S95Y (Saccharomyces cerevisiae, UniProt D6VTK4 1-303, S95Y)
T4 sequence (looked up): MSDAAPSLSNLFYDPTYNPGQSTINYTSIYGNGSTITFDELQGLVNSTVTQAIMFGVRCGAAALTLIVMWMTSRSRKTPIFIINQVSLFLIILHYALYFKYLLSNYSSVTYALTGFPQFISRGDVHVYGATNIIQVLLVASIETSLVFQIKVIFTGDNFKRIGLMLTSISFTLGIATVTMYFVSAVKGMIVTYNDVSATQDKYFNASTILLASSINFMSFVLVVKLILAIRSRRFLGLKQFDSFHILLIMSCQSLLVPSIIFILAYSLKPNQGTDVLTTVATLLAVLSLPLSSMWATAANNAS

[5] = target: T5, C-terminally truncated Ste2p F38Y (Saccharomyces cerevisiae, UniProt D6VTK4 1-303, F38Y)
T5 sequence (looked up): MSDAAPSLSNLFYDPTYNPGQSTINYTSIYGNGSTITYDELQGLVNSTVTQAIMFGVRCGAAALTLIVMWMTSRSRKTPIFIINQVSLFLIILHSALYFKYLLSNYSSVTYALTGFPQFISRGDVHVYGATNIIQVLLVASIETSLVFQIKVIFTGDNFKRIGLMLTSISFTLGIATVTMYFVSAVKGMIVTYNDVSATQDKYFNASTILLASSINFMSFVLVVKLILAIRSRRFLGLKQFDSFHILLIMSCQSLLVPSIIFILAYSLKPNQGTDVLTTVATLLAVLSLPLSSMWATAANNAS

B1: [K^7(NBD),Nle^12] α-factor (peptide)
chain: WHWLQLKPGQPMY
modifications: NBD (7-nitrobenz-2-oxa-1,3-diazol-4-yl) conjugated to the lysine at position 7; norleucine at position 12 in place of methionine
A Kd [1] of 0.8 ± 0.1 nM, a Kd [2] of 7.3 ± 0.9 nM and a Kd [3] of 5.3 ± 2.3 nM were found for B1 in this work. It also gave a Kd [4] of 8.1 ± 7.5 nM and a Kd [5] of 59 ± 11 nM.
